Assay results taken from patent publication US20130084301A1.

Biological target: HCV E2 glycoprotein, genotype 1a (H77c) (hepatitis C virus genotype 1a, H77c) (UniProt P27958)
Assay: not given

Work on CBH-5 (antibody) yielded a % reduction of E2 binding to CD81 of over 90%.

Biological target: E2 of genotype 1a HCVcc (hepatitis C virus genotype 1a)
Assay: cell-based or functional assay

With CBH-5 (antibody) the 50% inhibition, neutralization of 1a HCVcc was over 100 µg/mL.

Biological target: CD81 (UniProt P60033)
Assay: cell-based or functional assay

Sequence of CD81 (P60033 whole entry): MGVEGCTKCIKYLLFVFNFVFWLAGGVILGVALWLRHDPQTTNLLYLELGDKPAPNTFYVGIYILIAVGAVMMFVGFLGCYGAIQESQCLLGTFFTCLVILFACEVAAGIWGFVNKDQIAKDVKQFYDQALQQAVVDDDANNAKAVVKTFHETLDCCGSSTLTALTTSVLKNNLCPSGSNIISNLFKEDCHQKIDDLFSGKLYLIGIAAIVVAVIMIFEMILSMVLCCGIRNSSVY

Point of comparison: “HCV 1a E2 with alanine substitution at 428 (from UniProt P27958 384-746)”, reduction in viral infectivity, mutant 1a HCVpp (luciferase) 84%. Against it:
- HCV 1a E2 with alanine substitution at 443 (from UniProt P27958 384-746) — lower, 79%
- HCV 1a E2 with alanine substitution at 613 (from UniProt P27958 384-746) — higher, > 95%
- HCV 1a E2 with alanine substitution at 441 (from UniProt P27958 384-746) — higher, > 95%
- HCV 1a E2 with alanine substitution at 616 (from UniProt P27958 384-746) — higher, > 95%
- HCV 1a E2 with alanine substitution at 446 (from UniProt P27958 384-746) — lower, 60%
- HCV 1a E2 with alanine substitution at 420 (from UniProt P27958 384-746) — higher, > 95%
- HCV 1a E2 with alanine substitution at 429 (from UniProt P27958 384-746) — higher, > 95%
- HCV 1a E2 with alanine substitution at 437 (from UniProt P27958 384-746) — higher, > 95%
- HCV 1a E2 with alanine substitution at 442 (from UniProt P27958 384-746) — higher, > 95%
